Patent US20110294738A1, “PTHR1 RECEPTOR COMPOUNDS” (priority 2008, published 2011)
* marks the point of attachment. Palmitoyl = CCCCCCCCCCCCCCCC(=O)*

Target: PTHR1 receptor
Sequence (P25961 whole entry): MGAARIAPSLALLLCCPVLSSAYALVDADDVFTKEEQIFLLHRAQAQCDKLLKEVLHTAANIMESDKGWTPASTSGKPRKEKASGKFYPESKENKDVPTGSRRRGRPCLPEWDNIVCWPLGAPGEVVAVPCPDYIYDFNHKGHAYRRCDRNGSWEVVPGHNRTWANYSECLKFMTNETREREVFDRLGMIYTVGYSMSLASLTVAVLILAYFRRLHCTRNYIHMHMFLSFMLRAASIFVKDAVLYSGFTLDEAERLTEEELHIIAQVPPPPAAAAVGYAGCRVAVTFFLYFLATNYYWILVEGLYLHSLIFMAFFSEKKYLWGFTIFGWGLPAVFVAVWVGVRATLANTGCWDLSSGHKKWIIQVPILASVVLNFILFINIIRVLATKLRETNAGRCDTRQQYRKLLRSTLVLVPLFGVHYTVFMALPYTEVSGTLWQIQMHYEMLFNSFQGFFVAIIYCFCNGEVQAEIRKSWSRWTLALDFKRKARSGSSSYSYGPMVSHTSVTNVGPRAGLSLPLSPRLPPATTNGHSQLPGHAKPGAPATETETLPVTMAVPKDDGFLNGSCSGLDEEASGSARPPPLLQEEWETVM

B1: Compound 91 (peptide)
peptide: Palmitoyl-TNAGRSDTRQQYAKLL-NH2
SMILES: CCCCCCCCCCCCCCCC(=O)N[C@H](C(=O)N[C@@H](CC(N)=O)C(=O)N[C@@H](C)C(=O)NCC(=O)N[C@@H](CCCNC(=N)N)C(=O)N[C@@H](CO)C(=O)N[C@@H](CC(=O)O)C(=O)N[C@H](C(=O)N[C@@H](CCCNC(=N)N)C(=O)N[C@@H](CCC(N)=O)C(=O)N[C@@H](CCC(N)=O)C(=O)N[C@@H](Cc1ccc(O)cc1)C(=O)N[C@@H](C)C(=O)N[C@@H](CCCCN)C(=O)N[C@@H](CC(C)C)C(=O)N[C@@H](CC(C)C)C(N)=O)[C@@H](C)O)[C@@H](C)O
- Fold Shift of EC50: 2 fold
- Inhibition of Maximal Response: 9.8%

B2: Compound 87 (peptide)
peptide: Palmitoyl-TNAGRSDTRQQYRKLLA-NH2
SMILES: CCCCCCCCCCCCCCCC(=O)N[C@H](C(=O)N[C@@H](CC(N)=O)C(=O)N[C@@H](C)C(=O)NCC(=O)N[C@@H](CCCNC(=N)N)C(=O)N[C@@H](CO)C(=O)N[C@@H](CC(=O)O)C(=O)N[C@H](C(=O)N[C@@H](CCCNC(=N)N)C(=O)N[C@@H](CCC(N)=O)C(=O)N[C@@H](CCC(N)=O)C(=O)N[C@@H](Cc1ccc(O)cc1)C(=O)N[C@@H](CCCNC(=N)N)C(=O)N[C@@H](CCCCN)C(=O)N[C@@H](CC(C)C)C(=O)N[C@@H](CC(C)C)C(=O)N[C@@H](C)C(N)=O)[C@@H](C)O)[C@@H](C)O
- Fold Shift of EC50: 4.1 fold
- Inhibition of Maximal Response: 8%

B3: Compound 34 (peptide)
peptide: Palmitoyl-LYLHSLIFMAFFSEKKYLWGFT-NH2
SMILES: CCCCCCCCCCCCCCCC(=O)N[C@@H](CC(C)C)C(=O)N[C@@H](Cc1ccc(O)cc1)C(=O)N[C@@H](CC(C)C)C(=O)N[C@@H](Cc1c[nH]cn1)C(=O)N[C@@H](CO)C(=O)N[C@@H](CC(C)C)C(=O)N[C@H](C(=O)N[C@@H](Cc1ccccc1)C(=O)N[C@@H](CCSC)C(=O)N[C@@H](C)C(=O)N[C@@H](Cc1ccccc1)C(=O)N[C@@H](Cc1ccccc1)C(=O)N[C@@H](CO)C(=O)N[C@@H](CCC(=O)O)C(=O)N[C@@H](CCCCN)C(=O)N[C@@H](CCCCN)C(=O)N[C@@H](Cc1ccc(O)cc1)C(=O)N[C@@H](CC(C)C)C(=O)N[C@@H](Cc1c[nH]c2ccccc12)C(=O)NCC(=O)N[C@@H](Cc1ccccc1)C(=O)N[C@H](C(N)=O)[C@@H](C)O)[C@@H](C)CC
- Fold Shift of EC50: 1.2 fold
- Inhibition of Maximal Response: 4.2%

B4: Compound 90 (peptide)
peptide: Palmitoyl-TNAGRSDTRQQYRALL-NH2
SMILES: CCCCCCCCCCCCCCCC(=O)N[C@H](C(=O)N[C@@H](CC(N)=O)C(=O)N[C@@H](C)C(=O)NCC(=O)N[C@@H](CCCNC(=N)N)C(=O)N[C@@H](CO)C(=O)N[C@@H](CC(=O)O)C(=O)N[C@H](C(=O)N[C@@H](CCCNC(=N)N)C(=O)N[C@@H](CCC(N)=O)C(=O)N[C@@H](CCC(N)=O)C(=O)N[C@@H](Cc1ccc(O)cc1)C(=O)N[C@@H](CCCNC(=N)N)C(=O)N[C@@H](C)C(=O)N[C@@H](CC(C)C)C(=O)N[C@@H](CC(C)C)C(N)=O)[C@@H](C)O)[C@@H](C)O
- Fold Shift of EC50: 2 fold
- Inhibition of Maximal Response: 21%

B5: Compound 85 (peptide)
peptide: Palmitoyl-TNAGRSDTRQQYRKLLFS-NH2
SMILES: CCCCCCCCCCCCCCCC(=O)N[C@H](C(=O)N[C@@H](CC(N)=O)C(=O)N[C@@H](C)C(=O)NCC(=O)N[C@@H](CCCNC(=N)N)C(=O)N[C@@H](CO)C(=O)N[C@@H](CC(=O)O)C(=O)N[C@H](C(=O)N[C@@H](CCCNC(=N)N)C(=O)N[C@@H](CCC(N)=O)C(=O)N[C@@H](CCC(N)=O)C(=O)N[C@@H](Cc1ccc(O)cc1)C(=O)N[C@@H](CCCNC(=N)N)C(=O)N[C@@H](CCCCN)C(=O)N[C@@H](CC(C)C)C(=O)N[C@@H](CC(C)C)C(=O)N[C@@H](Cc1ccccc1)C(=O)N[C@@H](CO)C(N)=O)[C@@H](C)O)[C@@H](C)O
- Fold Shift of EC50: 6.9 fold
- Inhibition of Maximal Response: 19.5%

B6: Compound 94 (peptide)
peptide: Palmitoyl-AGRSDTRQQYRKLLFA-NH2
SMILES: CCCCCCCCCCCCCCCC(=O)N[C@@H](C)C(=O)NCC(=O)N[C@@H](CCCNC(=N)N)C(=O)N[C@@H](CO)C(=O)N[C@@H](CC(=O)O)C(=O)N[C@H](C(=O)N[C@@H](CCCNC(=N)N)C(=O)N[C@@H](CCC(N)=O)C(=O)N[C@@H](CCC(N)=O)C(=O)N[C@@H](Cc1ccc(O)cc1)C(=O)N[C@@H](CCCNC(=N)N)C(=O)N[C@@H](CCCCN)C(=O)N[C@@H](CC(C)C)C(=O)N[C@@H](CC(C)C)C(=O)N[C@@H](Cc1ccccc1)C(=O)N[C@@H](C)C(N)=O)[C@@H](C)O
- Fold Shift of EC50: 18.7 fold
- Inhibition of Maximal Response: -24.4%

B7: Compound 83 (peptide)
peptide: Palmitoyl-TNAGRSDTRQQYRKLLF-NH2
SMILES: CCCCCCCCCCCCCCCC(=O)N[C@H](C(=O)N[C@@H](CC(N)=O)C(=O)N[C@@H](C)C(=O)NCC(=O)N[C@@H](CCCNC(=N)N)C(=O)N[C@@H](CO)C(=O)N[C@@H](CC(=O)O)C(=O)N[C@H](C(=O)N[C@@H](CCCNC(=N)N)C(=O)N[C@@H](CCC(N)=O)C(=O)N[C@@H](CCC(N)=O)C(=O)N[C@@H](Cc1ccc(O)cc1)C(=O)N[C@@H](CCCNC(=N)N)C(=O)N[C@@H](CCCCN)C(=O)N[C@@H](CC(C)C)C(=O)N[C@@H](CC(C)C)C(=O)N[C@@H](Cc1ccccc1)C(N)=O)[C@@H](C)O)[C@@H](C)O
- Fold Shift of EC50: 7 fold
- Inhibition of Maximal Response: -5.8%

B8: Compound 92 (peptide)
peptide: Palmitoyl-TNAGRSDTRQQARKLL-NH2
SMILES: CCCCCCCCCCCCCCCC(=O)N[C@H](C(=O)N[C@@H](CC(N)=O)C(=O)N[C@@H](C)C(=O)NCC(=O)N[C@@H](CCCNC(=N)N)C(=O)N[C@@H](CO)C(=O)N[C@@H](CC(=O)O)C(=O)N[C@H](C(=O)N[C@@H](CCCNC(=N)N)C(=O)N[C@@H](CCC(N)=O)C(=O)N[C@@H](CCC(N)=O)C(=O)N[C@@H](C)C(=O)N[C@@H](CCCNC(=N)N)C(=O)N[C@@H](CCCCN)C(=O)N[C@@H](CC(C)C)C(=O)N[C@@H](CC(C)C)C(N)=O)[C@@H](C)O)[C@@H](C)O
- Fold Shift of EC50: 5 fold
- Inhibition of Maximal Response: 8.3%

B9: Compound 93 (peptide)
peptide: Palmitoyl-TNAGRSDTRQAYRKLL-NH2
SMILES: CCCCCCCCCCCCCCCC(=O)N[C@H](C(=O)N[C@@H](CC(N)=O)C(=O)N[C@@H](C)C(=O)NCC(=O)N[C@@H](CCCNC(=N)N)C(=O)N[C@@H](CO)C(=O)N[C@@H](CC(=O)O)C(=O)N[C@H](C(=O)N[C@@H](CCCNC(=N)N)C(=O)N[C@@H](CCC(N)=O)C(=O)N[C@@H](C)C(=O)N[C@@H](Cc1ccc(O)cc1)C(=O)N[C@@H](CCCNC(=N)N)C(=O)N[C@@H](CCCCN)C(=O)N[C@@H](CC(C)C)C(=O)N[C@@H](CC(C)C)C(N)=O)[C@@H](C)O)[C@@H](C)O
- Fold Shift of EC50: 13.4 fold
- Inhibition of Maximal Response: -67%

B10: Compound 89 (peptide)
peptide: Palmitoyl-TNAGRSDTRQQYRKAL-NH2
SMILES: CCCCCCCCCCCCCCCC(=O)N[C@H](C(=O)N[C@@H](CC(N)=O)C(=O)N[C@@H](C)C(=O)NCC(=O)N[C@@H](CCCNC(=N)N)C(=O)N[C@@H](CO)C(=O)N[C@@H](CC(=O)O)C(=O)N[C@H](C(=O)N[C@@H](CCCNC(=N)N)C(=O)N[C@@H](CCC(N)=O)C(=O)N[C@@H](CCC(N)=O)C(=O)N[C@@H](Cc1ccc(O)cc1)C(=O)N[C@@H](CCCNC(=N)N)C(=O)N[C@@H](CCCCN)C(=O)N[C@@H](C)C(=O)N[C@@H](CC(C)C)C(N)=O)[C@@H](C)O)[C@@H](C)O
- Fold Shift of EC50: 2.3 fold
- Inhibition of Maximal Response: -20.4%

B11: Compound 86 (peptide)
peptide: Palmitoyl-TNAGRSDTRQQYRKLLFA-NH2
SMILES: CCCCCCCCCCCCCCCC(=O)N[C@H](C(=O)N[C@@H](CC(N)=O)C(=O)N[C@@H](C)C(=O)NCC(=O)N[C@@H](CCCNC(=N)N)C(=O)N[C@@H](CO)C(=O)N[C@@H](CC(=O)O)C(=O)N[C@H](C(=O)N[C@@H](CCCNC(=N)N)C(=O)N[C@@H](CCC(N)=O)C(=O)N[C@@H](CCC(N)=O)C(=O)N[C@@H](Cc1ccc(O)cc1)C(=O)N[C@@H](CCCNC(=N)N)C(=O)N[C@@H](CCCCN)C(=O)N[C@@H](CC(C)C)C(=O)N[C@@H](CC(C)C)C(=O)N[C@@H](Cc1ccccc1)C(=O)N[C@@H](C)C(N)=O)[C@@H](C)O)[C@@H](C)O
- Fold Shift of EC50: 3.6 fold
- Inhibition of Maximal Response: 5.2%

B12: Compound 88 (peptide)
peptide: Palmitoyl-TNAGRSDTRQQYRKLA-NH2
SMILES: CCCCCCCCCCCCCCCC(=O)N[C@H](C(=O)N[C@@H](CC(N)=O)C(=O)N[C@@H](C)C(=O)NCC(=O)N[C@@H](CCCNC(=N)N)C(=O)N[C@@H](CO)C(=O)N[C@@H](CC(=O)O)C(=O)N[C@H](C(=O)N[C@@H](CCCNC(=N)N)C(=O)N[C@@H](CCC(N)=O)C(=O)N[C@@H](CCC(N)=O)C(=O)N[C@@H](Cc1ccc(O)cc1)C(=O)N[C@@H](CCCNC(=N)N)C(=O)N[C@@H](CCCCN)C(=O)N[C@@H](CC(C)C)C(=O)N[C@@H](C)C(N)=O)[C@@H](C)O)[C@@H](C)O
- Fold Shift of EC50: 2.8 fold
- Inhibition of Maximal Response: -25%

B13: Compound 84 (peptide)
peptide: Palmitoyl-TNAGRSDTRQQYRKLLK-NH2
SMILES: CCCCCCCCCCCCCCCC(=O)N[C@H](C(=O)N[C@@H](CC(N)=O)C(=O)N[C@@H](C)C(=O)NCC(=O)N[C@@H](CCCNC(=N)N)C(=O)N[C@@H](CO)C(=O)N[C@@H](CC(=O)O)C(=O)N[C@H](C(=O)N[C@@H](CCCNC(=N)N)C(=O)N[C@@H](CCC(N)=O)C(=O)N[C@@H](CCC(N)=O)C(=O)N[C@@H](Cc1ccc(O)cc1)C(=O)N[C@@H](CCCNC(=N)N)C(=O)N[C@@H](CCCCN)C(=O)N[C@@H](CC(C)C)C(=O)N[C@@H](CC(C)C)C(=O)N[C@@H](CCCCN)C(N)=O)[C@@H](C)O)[C@@H](C)O
- Fold Shift of EC50: 9.1 fold
- Inhibition of Maximal Response: -25.2%
